Kd data for three molecules are collected here from article PMC3642155.

For the data set, the target named is T7 RNA polymerase (UniProt P00573 1-883). The data set is described as follows: filter binding.
Chain of T7 RNA polymerase (P00573 whole entry): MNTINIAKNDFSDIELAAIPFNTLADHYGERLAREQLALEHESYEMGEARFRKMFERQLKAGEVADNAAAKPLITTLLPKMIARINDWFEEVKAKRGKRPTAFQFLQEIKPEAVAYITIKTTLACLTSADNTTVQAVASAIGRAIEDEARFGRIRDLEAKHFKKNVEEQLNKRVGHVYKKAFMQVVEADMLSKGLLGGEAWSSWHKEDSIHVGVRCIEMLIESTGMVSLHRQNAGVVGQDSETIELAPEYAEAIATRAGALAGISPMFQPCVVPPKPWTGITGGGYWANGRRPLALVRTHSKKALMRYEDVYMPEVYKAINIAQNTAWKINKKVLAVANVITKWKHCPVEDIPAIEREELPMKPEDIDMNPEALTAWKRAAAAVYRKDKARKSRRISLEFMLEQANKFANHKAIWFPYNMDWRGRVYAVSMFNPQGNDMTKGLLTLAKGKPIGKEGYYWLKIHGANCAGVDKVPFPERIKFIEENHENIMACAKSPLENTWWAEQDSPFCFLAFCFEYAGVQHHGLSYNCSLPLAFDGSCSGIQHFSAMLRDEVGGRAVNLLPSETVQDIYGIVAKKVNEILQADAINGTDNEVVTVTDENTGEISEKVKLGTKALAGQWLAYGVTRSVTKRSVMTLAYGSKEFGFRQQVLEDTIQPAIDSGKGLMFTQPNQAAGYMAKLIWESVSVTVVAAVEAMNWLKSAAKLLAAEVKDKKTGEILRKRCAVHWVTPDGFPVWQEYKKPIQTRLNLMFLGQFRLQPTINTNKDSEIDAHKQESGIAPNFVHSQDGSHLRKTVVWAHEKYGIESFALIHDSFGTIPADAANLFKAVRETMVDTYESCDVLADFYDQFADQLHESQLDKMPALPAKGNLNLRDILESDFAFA

B1: T230-29 (structured_RNA)
RNA: GCGUAAGUCAAUUCCACUAUCAUUGCUGC
The term Kd denotes the free concentration of one partner at which half of the binding sites on the other are occupied at equilibrium, for simple one-to-one binding. A high value points to weaker binding. In the case of B1, the Kd was determined as 2.9 ± 0.9 nM.

B2: T06-38 (structured_RNA)
RNA: GUGUAGUGUAAGUCAAUUCUACUUUCGUUGCAGCCCAC
In turn, B2 showed a Kd of 10.5 ± 2.1 nM.

B3: T06 (structured_RNA)
RNA: GAGGAUGGCAGCGGAGAGGAAUGGUGUAGUGUAAGUCAAUUCUACUUUCGUUGCAGCCCACACCACUCUCC
B3: the Kd is 8 ± 2.4 nM.
